# Assay results taken from paper PMC9513805, “A natural transdifferentiation event involving mitosis is empowered by integrating signaling inputs with conserved plasticity factors”.
# T1: HMG-POP-1 (Caenorhabditis elegans, UniProt Q10666 181-281)
# T1 sequence: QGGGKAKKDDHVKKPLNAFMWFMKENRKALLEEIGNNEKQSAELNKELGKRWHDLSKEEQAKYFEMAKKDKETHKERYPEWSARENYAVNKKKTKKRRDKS
# B1: lim-6 intron 4 probe 1 (dsDNA)
# DNA 1: TACGATTTGCAAACAACAAACATTCCAGACAGAT
# DNA 2: ATCTGTCTGGAATGTTTGTTGTTTGCAAATCGTA
# B2: lim-6 intron 4 probe 2 (dsDNA)
# DNA 1: CTGCTACCGTAGTGCTTTGTTGATTTAACACACA
# DNA 2: TGTGTGTTAAATCAACAAAGCACTACGGTAGCAG
# How the values were obtained:
# SOX-2 = SOX-2 (Caenorhabditis elegans, UniProt Q21305 1-283); assay: EMSA; 20 mM Tris-HCl pH 8.0, 100 mM NaCl, 100 ug/mL BSA, 1 mM EDTA, 1 mM DTT, 0.1% NP-40; 20 min on ice (supershift 30 min at room temperature), 200 ng Cy5 probe; 6%; conditions: protein: recombinant; tags: N-terminal 6xHis, C-terminal HA (pSJ6094); label: Cy5 on forward strand; blunt
# SOX-2, sequence (Q21305 whole entry): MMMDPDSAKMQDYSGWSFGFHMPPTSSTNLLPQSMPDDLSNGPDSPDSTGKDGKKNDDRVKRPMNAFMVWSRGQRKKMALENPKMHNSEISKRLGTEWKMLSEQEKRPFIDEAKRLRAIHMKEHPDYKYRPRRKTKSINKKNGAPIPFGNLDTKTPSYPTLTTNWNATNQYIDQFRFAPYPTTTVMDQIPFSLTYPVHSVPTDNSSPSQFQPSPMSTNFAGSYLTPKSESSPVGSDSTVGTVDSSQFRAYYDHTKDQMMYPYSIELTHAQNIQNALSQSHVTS
# HMG-POP-1 = target: T1, HMG-POP-1; assay: as above; conditions: protein: recombinant; tags: N-terminal 6xHis (pSJ769); label: Cy5 on forward strand; blunt
Binder,binding result (SOX-2),binding result (HMG-POP-1)
B1,binds,binds
B2,binds,binds
